From publication PMC4161306, “Regulation of Arabidopsis Flowering by the Histone Mark Readers MRG1/2 via Interaction with CONSTANS to Modulate FT Expression” (PLoS Genetics, 2014)

Key:
CO [1] = assay: Pull-down truncation analysis of MRG2 with GST-fused CO; type: binding, Arabidopsis; conditions: in vitro pull-down, Figure 5B
Experimental: (§1) MRG2 and MRG2C (442–984) cDNA were amplified with primers MRG2-1/MRG2-10 and MRG2-9/MRG2-10, respectively, and then cloned into pET-30a vector (Novagen, www.novagen.com). The resulting constructs and pET-30a-MRG2N were used for purification of His-tagged MRG2, MRG2C, and MRG2N proteins. CO cDNA was amplified using primers CO-1/CO-2, and then cloned into pGEX-4T-1 vector for purification of GST-fused CO proteins. Pulldown experiments were performed according to a previously described protocol.

CO [2] = assay: Bimolecular fluorescence complementation (BiFC) in tobacco leaf cells; type: cell-based, Arabidopsis; conditions: split YFP, Nicotiana benthamiana leaves, 2–3 days after infiltration, Figure 5C
Experimental: BiFC was performed as described by Sun et al.. For BiFC assays, MRG2C cDNA was amplified using primers MRG2-11/MRG2-12, and then cloned into pXY103 and pXY106 vectors. CO cDNA was amplified by primers CO-3/CO-4, and then cloned into a pXY104 vector. Leaves of 4- to 8-week-old Nicotiana benthamiana plants were co-infiltrated with Agrobacterium tumefaciens strain […] carrying transgene constructs. Localization of BiFC fluorescence was observed 2–3 days after infiltration using a confocal laser scanning microscope (LSM 710, ZEISS, Germany).

MRG2 = assay: GST pull-down assay, His-tagged MRG2; type: binding, Arabidopsis; conditions: in vitro, purified proteins from E. coli, Figure 5B
Experimental: as §1

B1: MRG2N: chromodomain of MRG2, cDNA 1–369 (protein)
chain: MGSPNAAAETDLTTDDFIGDTRRDSGSDTETNTDCDGEDLPLLLLPAPPGHFEEGERVLAKHSDCFYEAKVLKVEFKDNEWKYFVHYIGWNKSWDEWIRLDCLLKHSDENIEKQKEQGLKQQG
modifications: left off: His tag, N-terminal, kept
CO [1]
  binding to CO: not

B2: MRG2: Arabidopsis Morf Related Gene group protein MRG2 (protein, UniProt Q4V3E2 1-327, looked up)
Protein MRG2: MGSPNAAAETDLTTDDFIGDTRRDSGSDTETNTDCDGEDLPLLLLPAPPGHFEEGERVLAKHSDCFYEAKVLKVEFKDNEWKYFVHYIGWNKSWDEWIRLDCLLKHSDENIEKQKEQGLKQQGIKSAMAWKVSKMKPRSPNVARGRKRKQDSVDTEKNVLPSDNLLSFNIPPALRKQLLDDFEFVTQMQKLVQLPRSPNVDGILKKYIDSQMKKHGRVTDSLEEILKGLRCYFDKALPVMLLYNNERKQYEESVSGGVSPSTVYGAEHLLRLFVKLPELLVHVNMAEETLKELQDNFVDILRFLRKNQSVLFVSTYKAVEEMEKKEG
CO [2]
  interaction with CO in vivo: interacted in vivo

B3: GST-fused CO: GST-fused CONSTANS protein purified from E. coli (protein)
chain: MLKQESNDIGSGENNRARPCDTCRSNACTVYCHADSAYLCMSCDAQVHSANRVASRHKRVRVCESCERAPAAFLCEADDASLCTACDSEVHSANPLARRHQRVPILPISGNSFSSMTTTHHQSEKTMTDPEKRLVVDQEEGEEGDKDAKEVASWLFPNSDKNNNNQNNGLLFSDEYLNLVDYNSSMDYKFTGEYSQHQQNCSVPQTSYGGDRVVPLKLEESRGHQCHNQQNFQFNIKYGSSGTHYNDNGSINHNAYISSMETGVVPESTACVTTASHPRTPKGTVEQQPDPASQMITVTQLSPMDREARVLRYREKRKTRKFEKTIRYASRKAYAEIRPRVNGRFAKREIEAEEQGFNTMLMYNTGYGIVPSF
modifications: left off: GST, end not stated, kept
notes: GST-fused CONSTANS protein purified from E. coli
MRG2
  pull-down of His-tagged MRG2: could pull-down MRG2

B4: MRG2C: MRG domain of MRG2, cDNA 442–984 (protein)
chain: RKQDSVDTEKNVLPSDNLLSFNIPPALRKQLLDDFEFVTQMQKLVQLPRSPNVDGILKKYIDSQMKKHGRVTDSLEEILKGLRCYFDKALPVMLLYNNERKQYEESVSGGVSPSTVYGAEHLLRLFVKLPELLVHVNMAEETLKELQDNFVDILRFLRKNQSVLFVSTYKAVEEMEKKEG
modifications: left off: His tag, end not stated, kept
CO [1]
  binding to CO: contributed to binding to CO
CO [2]
  interaction with CO in vivo: interacted in vivo
